Data set [1] addresses T1, Rad52 (Saccharomyces cerevisiae, UniProt P06778 1-471). As to the kind of experiment: fluorescence anisotropy; stoichiometric, too tight to fit; Anisotropy/FRET: 50 mM Tris-acetate pH 7.5, 50 mM KCl, 5 mM MgCl2, 10% glycerol, 1 mM DTT, 0.2 mg/mL BSA, 23 C; stopped flow: 50 mM Tris-acetate pH 7.5, 5 mM Mg. Particulars: protein: recombinant; chain copies: 10; label: 5'-FAM; single strand.

The target of data set [2] is T2, Rad52ΔC (Saccharomyces cerevisiae, UniProt P06778 1-217). The description is as above. To be noted: protein: recombinant; chain copies: 10; label: 5'-FAM; single strand.
The target of data set [3] is T1, Rad52. Kind of data set: fluorescence anisotropy; preformed complex, reversible; Anisotropy/FRET: 50 mM Tris-acetate pH 7.5, 50 mM KCl, 5 mM MgCl2, 10% glycerol, 1 mM DTT, 0.2 mg/mL BSA, 23 C; stopped flow: 50 mM Tris-acetate pH 7.5, 5 mM Mg. To be noted: protein: recombinant; chain copies: 10; label: 5'-FAM; single strand.
Data set [4] deals with T1, Rad52. Kind of data set: competition; competes with FAM-(dT)70; Anisotropy/FRET: 50 mM Tris-acetate pH 7.5, 50 mM KCl, 5 mM MgCl2, 10% glycerol, 1 mM DTT, 0.2 mg/mL BSA, 23 C; stopped flow: 50 mM Tris-acetate pH 7.5, 5 mM Mg. Particulars: protein: recombinant; chain copies: 10; single strand.
In data set [5] the target is T1, Rad52. As to the kind of experiment: FRET; 45 nt sufficient to capture FRET; Anisotropy/FRET: 50 mM Tris-acetate pH 7.5, 50 mM KCl, 5 mM MgCl2, 10% glycerol, 1 mM DTT, 0.2 mg/mL BSA, 23 C; stopped flow: 50 mM Tris-acetate pH 7.5, 5 mM Mg. To be noted: protein: recombinant; chain copies: 10; label: 5'-Cy5, 3'-Cy3; single strand.
Data set [6] concerns the target T1, Rad52. Kind of data set: AUC sedimentation velocity; 1:1 decamer:DNA; Anisotropy/FRET: 50 mM Tris-acetate pH 7.5, 50 mM KCl, 5 mM MgCl2, 10% glycerol, 1 mM DTT, 0.2 mg/mL BSA, 23 C; stopped flow: 50 mM Tris-acetate pH 7.5, 5 mM Mg. Particulars: protein: recombinant; chain copies: 10; single strand.
The target of data set [7] is T2, Rad52ΔC. Kind of data set: AUC sedimentation velocity; Anisotropy/FRET: 50 mM Tris-acetate pH 7.5, 50 mM KCl, 5 mM MgCl2, 10% glycerol, 1 mM DTT, 0.2 mg/mL BSA, 23 C; stopped flow: 50 mM Tris-acetate pH 7.5, 5 mM Mg. Particulars: protein: recombinant; chain copies: 10; single strand.
The target in data set [8] is T3, Rad51 (Saccharomyces cerevisiae, UniProt P25454 1-400). Kind of data set: FRET; outcompetes prebound Rad52 or Rad52ΔC at steady state; Anisotropy/FRET: 50 mM Tris-acetate pH 7.5, 50 mM KCl, 5 mM MgCl2, 10% glycerol, 1 mM DTT, 0.2 mg/mL BSA, 23 C; stopped flow: 50 mM Tris-acetate pH 7.5, 5 mM Mg. Particulars: protein: recombinant; label: 5'-Cy5, 3'-Cy3; single strand.

Data set [9] concerns the target T1, Rad52. Kind of data set: FRET; steady-state wrapping; Anisotropy/FRET: 50 mM Tris-acetate pH 7.5, 50 mM KCl, 5 mM MgCl2, 10% glycerol, 1 mM DTT, 0.2 mg/mL BSA, 23 C; stopped flow: 50 mM Tris-acetate pH 7.5, 5 mM Mg. Particulars: protein: recombinant; chain copies: 10; label: 5'-Cy5, 3'-Cy3; single strand.
In data set [10] the target is T2, Rad52ΔC. The description is as above. Particulars: protein: recombinant; chain copies: 10; label: 5'-Cy5, 3'-Cy3; single strand.
Data set [11] deals with T1, Rad52. As to the kind of experiment: tryptophan quenching; lower affinity site, two-site sequential model; Anisotropy/FRET: 50 mM Tris-acetate pH 7.5, 50 mM KCl, 5 mM MgCl2, 10% glycerol, 1 mM DTT, 0.2 mg/mL BSA, 23 C; stopped flow: 50 mM Tris-acetate pH 7.5, 5 mM Mg. To be noted: protein: recombinant; chain copies: 10; single strand.
Data set [12] concerns the target T1, Rad52. As to the kind of experiment: tryptophan quenching; high affinity site, two-site sequential model; Anisotropy/FRET: 50 mM Tris-acetate pH 7.5, 50 mM KCl, 5 mM MgCl2, 10% glycerol, 1 mM DTT, 0.2 mg/mL BSA, 23 C; stopped flow: 50 mM Tris-acetate pH 7.5, 5 mM Mg. To be noted: protein: recombinant; chain copies: 10; single strand.
In data set [13] the target is T1, Rad52. As to the kind of experiment: tryptophan quenching; profile similar to (dT)84; Anisotropy/FRET: 50 mM Tris-acetate pH 7.5, 50 mM KCl, 5 mM MgCl2, 10% glycerol, 1 mM DTT, 0.2 mg/mL BSA, 23 C; stopped flow: 50 mM Tris-acetate pH 7.5, 5 mM Mg. Particulars: protein: recombinant; chain copies: 10; single strand.
Data set [14] addresses T3, Rad51. Kind of data set: stopped-flow FRET; ATP; filament on Rad52-prebound DNA; Anisotropy/FRET: 50 mM Tris-acetate pH 7.5, 50 mM KCl, 5 mM MgCl2, 10% glycerol, 1 mM DTT, 0.2 mg/mL BSA, 23 C; stopped flow: 50 mM Tris-acetate pH 7.5, 5 mM Mg. To be noted: protein: recombinant; label: 5'-Cy5, 3'-Cy3; single strand.
Data set [15] has as its target T1, Rad52. As to the kind of experiment: stopped-flow FRET; Anisotropy/FRET: 50 mM Tris-acetate pH 7.5, 50 mM KCl, 5 mM MgCl2, 10% glycerol, 1 mM DTT, 0.2 mg/mL BSA, 23 C; stopped flow: 50 mM Tris-acetate pH 7.5, 5 mM Mg. Particulars: protein: recombinant; chain copies: 10; label: 5'-Cy5, 3'-Cy3; single strand.
For data set [16], the target named is T2, Rad52ΔC. Described as above. To be noted: protein: recombinant; chain copies: 10; label: 5'-Cy5, 3'-Cy3; single strand.

As to TTTTTTTTTTTTTTTTTTTTTTTTTTTTTTTTTTT (ssDNA) [FAM-(dT)35], the binding result in data set [1] and in [2] was “binds” in each case.

B1: FAM-(dT)70 (ssDNA)
DNA: TTTTTTTTTTTTTTTTTTTTTTTTTTTTTTTTTTTTTTTTTTTTTTTTTTTTTTTTTTTTTTTTTTTTTT
In the case of B1, the binding result in data set [3] is on record as “binds”.

B2: (dT)70 unlabeled (ssDNA)
DNA: TTTTTTTTTTTTTTTTTTTTTTTTTTTTTTTTTTTTTTTTTTTTTTTTTTTTTTTTTTTTTTTTTTTTTT
Turning to B2, the binding result in data set [4] is “binds”.
As to TTTTTTTTTTTTTTTTTTTTTTTTTTTTTTTTTTTTTTTTTTTTT (ssDNA) [Cy5-(dT)45-Cy3], the binding result in [5] is recorded as “binds”.
On to TTTTTTTTTTTTTTTTTTTTTTTTTTTTTTTTTTTTTTTTTTTTT (ssDNA) [(dT)45], for which the binding result in data set [6] and in data set [7] was “binds” in each case.

B3: Cy5-(dT)80-Cy3 (ssDNA)
DNA: TTTTTTTTTTTTTTTTTTTTTTTTTTTTTTTTTTTTTTTTTTTTTTTTTTTTTTTTTTTTTTTTTTTTTTTTTTTTTTTT
With B3, the binding result in data set [8], in [9] and in data set [10] was “binds” in each case.

B4: (dT)84 (ssDNA)
DNA: TTTTTTTTTTTTTTTTTTTTTTTTTTTTTTTTTTTTTTTTTTTTTTTTTTTTTTTTTTTTTTTTTTTTTTTTTTTTTTTTTTTT
As for B4, the Kd in data set [11] amounted to 28 nM; in data set [12] it was 0.0013 nM.

B5: (dT)54 (ssDNA)
DNA: TTTTTTTTTTTTTTTTTTTTTTTTTTTTTTTTTTTTTTTTTTTTTTTTTTTTTT
Consider B5, for which the binding result in data set [13] was “binds”.

B6: Cy5-(dT)97-Cy3 (ssDNA)
DNA: TTTTTTTTTTTTTTTTTTTTTTTTTTTTTTTTTTTTTTTTTTTTTTTTTTTTTTTTTTTTTTTTTTTTTTTTTTTTTTTTTTTTTTTTTTTTTTTTT
For B6, the binding result in data set [14], in [15] and in data set [16] was “binds” throughout.

B7: (dT)97 (ssDNA)
DNA: TTTTTTTTTTTTTTTTTTTTTTTTTTTTTTTTTTTTTTTTTTTTTTTTTTTTTTTTTTTTTTTTTTTTTTTTTTTTTTTTTTTTTTTTTTTTTTTTT
For the molecule B7, the binding result in data set [6] and in data set [7] was “binds” throughout.
